B1: Hairpin Ribozyme (parent)
chain: GUCCUCUUUCACGUGCGCGUGAAAGAGAGAAGUGAACCAGAGAAACACACGUUGUGGUAUAUUACCUGGUA

Variants of: B1
Assay: self-cleavage, relative activity (ratio to wild type); higher = more cleavage; co-transcriptional
C66U U67G showed a self-cleavage of 0.0789.
Variant U63G U70A has a self-cleavage of 0.0931.
C66A U67A gave a self-cleavage of 0.234.
A59U U60C gave a self-cleavage of 0.257.
Work on A59U U60G yielded a self-cleavage of 0.172.
In the case of U58G A59U, the self-cleavage is reported as 0.242.
For U58G A59C, the self-cleavage was 0.149.
A61G U70A showed a self-cleavage of 0.154.
U58G U62G showed a self-cleavage of 0.304.
With U58A A71G the self-cleavage was 0.768.
Variant A61C U63G has a self-cleavage of 0.12.
With A61C U63C the self-cleavage was 0.284.
Variant U58C U60G has a self-cleavage of 0.742.
For C66G G68A, the self-cleavage was 0.123.
With U58C A59G the self-cleavage was 0.272.
Work on U58C A59C yielded a self-cleavage of 0.304.
U63G C66G showed a self-cleavage of 0.125.
A59C A71U gave a self-cleavage of 0.156.
With C65A U70C the self-cleavage was 0.692.
With C65A U70G the self-cleavage was 0.562.
With U58G U67G the self-cleavage was 0.173.
In the case of U63G C65G, the self-cleavage is reported as 0.243.
For U63G C65A, the self-cleavage was 0.0995.
For U63C C65G, the self-cleavage was 0.117.
In the case of U58G U63G, the self-cleavage is reported as 0.104.
In the case of U62G G69U, the self-cleavage is reported as 0.165.
For U62G G69A, the self-cleavage was 0.0955.
Work on U62G G69C yielded a self-cleavage of 0.217.
Variant U63G U67G has a self-cleavage of 0.134.
Work on U67A A71G yielded a self-cleavage of 0.196.
Variant U67A A71U has a self-cleavage of 0.194.
With U67G G68U the self-cleavage was 0.192.
For A61G G69U, the self-cleavage was 0.128.
For A61G G69C, the self-cleavage was 0.156.
U62A U63C showed a self-cleavage of 0.113.
U62A U63A showed a self-cleavage of 0.12.
For U62A U63G, the self-cleavage was 0.112.
A61C U62G gave a self-cleavage of 0.102.
In the case of A61C U62A, the self-cleavage is reported as 0.143.
With G68C A71U the self-cleavage was 0.126.
Variant U63A U67C has a self-cleavage of 0.14.
For U63A U67G, the self-cleavage was 0.118.
With U63A U67A the self-cleavage was 0.208.
For A61C A71U, the self-cleavage was 0.164.
Variant A61C A71C has a self-cleavage of 0.285.
For A64U G68U, the self-cleavage was 0.23.
Variant U60C A61U has a self-cleavage of 0.296.
Variant A61U G69C has a self-cleavage of 0.283.
Work on A61U G69A yielded a self-cleavage of 0.145.
A61U G69U gave a self-cleavage of 0.152.
In the case of U63G G69A, the self-cleavage is reported as 0.102.
In the case of U63G G69U, the self-cleavage is reported as 0.169.
C66G gave a self-cleavage of 0.181.
Work on C66U yielded a self-cleavage of 0.527.
Variant C66A has a self-cleavage of 0.218.
Variant A61C U67G has a self-cleavage of 0.24.
A59U C65G showed a self-cleavage of 0.218.
For A61G C65U, the self-cleavage was 0.192.
Work on A59G C66G yielded a self-cleavage of 0.228.
G68C G69U gave a self-cleavage of 0.17.
In the case of U63A G69U, the self-cleavage is reported as 0.17.
Variant A59C U63G has a self-cleavage of 0.164.
In the case of A59C U63C, the self-cleavage is reported as 0.199.
In the case of U63A A64C, the self-cleavage is reported as 0.0838.
Work on U63C A64G yielded a self-cleavage of 0.0805.
A64G G69C gave a self-cleavage of 0.142.
Work on A64G G69A yielded a self-cleavage of 0.121.
U70C A71G gave a self-cleavage of 1.85.
A64C U67A gave a self-cleavage of 0.0615.
For A59U A71U, the self-cleavage was 0.252.
With A59U A71G the self-cleavage was 0.156.
U58A A59U gave a self-cleavage of 0.183.
With U58A A59C the self-cleavage was 0.252.
With U60C A64G the self-cleavage was 0.614.
In the case of A59U U67C, the self-cleavage is reported as 0.11.
Work on A61G U62A yielded a self-cleavage of 0.198.
With U58G G68C the self-cleavage was 0.178.
Work on U58G G68A yielded a self-cleavage of 0.208.
With U58G U70G the self-cleavage was 0.575.
U60C C66G gave a self-cleavage of 0.0763.
A59C U60C gave a self-cleavage of 0.167.
With U62C G68U the self-cleavage was 0.178.
Variant C65G G68A has a self-cleavage of 0.254.
C65G G68U showed a self-cleavage of 0.102.
Work on A64G C65U yielded a self-cleavage of 0.215.
Work on A64G C65A yielded a self-cleavage of 0.139.
With A64G C65G the self-cleavage was 0.101.
U62G G68A gave a self-cleavage of 0.263.
Variant C65A G69C has a self-cleavage of 0.224.
Work on C65A G69U yielded a self-cleavage of 0.235.
In the case of U63C G68U, the self-cleavage is reported as 0.351.
Work on U62C U67G yielded a self-cleavage of 0.265.
U62C U67C showed a self-cleavage of 0.121.
G69A A71G showed a self-cleavage of 0.358.
Work on A59C U70C yielded a self-cleavage of 0.151.
For A59C U70G, the self-cleavage was 0.141.
C65A U67A showed a self-cleavage of 0.141.
C65A U67C showed a self-cleavage of 0.228.
In the case of U58A A64U, the self-cleavage is reported as 0.237.
U58A A64C showed a self-cleavage of 0.143.
A59U U70A gave a self-cleavage of 0.177.
In the case of U58C G69U, the self-cleavage is reported as 0.302.
For U58A U62C, the self-cleavage was 0.12.
U62A C66G gave a self-cleavage of 0.188.
Work on A61U A64G yielded a self-cleavage of 0.121.
With A61U A64C the self-cleavage was 0.197.
In the case of A61U U62A, the self-cleavage is reported as 0.139.
C65G G69U showed a self-cleavage of 0.156.
With C65G G69C the self-cleavage was 0.219.
For A61C U70G, the self-cleavage was 0.146.
For A61C U70A, the self-cleavage was 0.204.
For U60C U70A, the self-cleavage was 1.29.
With U58A C65G the self-cleavage was 0.0985.
Work on U60C U67A yielded a self-cleavage of 0.324.
Variant U62A A64C has a self-cleavage of 0.164.
Work on G68A A71C yielded a self-cleavage of 0.348.
U58C C65G showed a self-cleavage of 0.255.
For U58C C65A, the self-cleavage was 1.11.
G68A G69U showed a self-cleavage of 0.172.
With A64U U70C the self-cleavage was 0.0932.
Work on A59C U62C yielded a self-cleavage of 0.0999.
A59C U62G gave a self-cleavage of 0.123.
A59U U62A showed a self-cleavage of 0.326.
A59U U62C showed a self-cleavage of 0.185.
For A59U U62G, the self-cleavage was 0.262.
U60G G68A showed a self-cleavage of 0.201.
A59C U67C gave a self-cleavage of 0.123.
Variant A59C U67A has a self-cleavage of 0.241.
Work on A64G U70C yielded a self-cleavage of 0.61.
In the case of A59U A61U, the self-cleavage is reported as 0.168.
Work on A59U A61C yielded a self-cleavage of 0.0374.
Work on A61U G68U yielded a self-cleavage of 0.153.
A64U C65U gave a self-cleavage of 0.194.
With A64U C65A the self-cleavage was 0.187.
U58G G69U showed a self-cleavage of 0.113.
Variant C65U has a self-cleavage of 0.323.
For C65G, the self-cleavage was 0.273.
Work on C65A yielded a self-cleavage of 0.989.
In the case of U60G A71C, the self-cleavage is reported as 1.01.
U60G A71G showed a self-cleavage of 0.672.
A59G C65U showed a self-cleavage of 0.18.
A61C C65U showed a self-cleavage of 0.148.
A59C A64U showed a self-cleavage of 0.0804.
A64U C66U showed a self-cleavage of 0.11.
In the case of A64U G69U, the self-cleavage is reported as 0.281.
For A61G U63G, the self-cleavage was 0.0586.
In the case of A61G U63A, the self-cleavage is reported as 0.144.
For A61G U63C, the self-cleavage was 0.253.
Variant U58A G69U has a self-cleavage of 0.175.
With U62C G69U the self-cleavage was 0.169.
Work on C66U U70G yielded a self-cleavage of 0.297.
For C66G A71G, the self-cleavage was 0.16.

Source: the RNAGym collection of RNA variant scans (doi:10.7554/elife.80360)
